Publication PMC8428117, “Y chromosomal noncoding RNAs regulate autosomal gene expression via piRNAs in mouse testis”

Target: MIWI (mouse homologue of PIWI) (UniProt Q9JMB7 1-862)
Test: EMSA; shift abolished by MIWI antibody, not by Argonaute 3 antibody; competed by cold piR1; 20 mM HEPES (pH not stated), 3 mM MgCl2, 40 mM KCl, 5% glycerol, 2 mM DTT, 4 U RNase inhibitor; 5 ug MIWI in 25 ul; on ice, 30 min with probe (competitor/antibody 1 h before); 5% native PAGE
Conditions: protein: recombinant; tags: FLAG; label: 32P end label

MIWI (mouse homologue of PIWI), sequence (Q9JMB7 whole entry): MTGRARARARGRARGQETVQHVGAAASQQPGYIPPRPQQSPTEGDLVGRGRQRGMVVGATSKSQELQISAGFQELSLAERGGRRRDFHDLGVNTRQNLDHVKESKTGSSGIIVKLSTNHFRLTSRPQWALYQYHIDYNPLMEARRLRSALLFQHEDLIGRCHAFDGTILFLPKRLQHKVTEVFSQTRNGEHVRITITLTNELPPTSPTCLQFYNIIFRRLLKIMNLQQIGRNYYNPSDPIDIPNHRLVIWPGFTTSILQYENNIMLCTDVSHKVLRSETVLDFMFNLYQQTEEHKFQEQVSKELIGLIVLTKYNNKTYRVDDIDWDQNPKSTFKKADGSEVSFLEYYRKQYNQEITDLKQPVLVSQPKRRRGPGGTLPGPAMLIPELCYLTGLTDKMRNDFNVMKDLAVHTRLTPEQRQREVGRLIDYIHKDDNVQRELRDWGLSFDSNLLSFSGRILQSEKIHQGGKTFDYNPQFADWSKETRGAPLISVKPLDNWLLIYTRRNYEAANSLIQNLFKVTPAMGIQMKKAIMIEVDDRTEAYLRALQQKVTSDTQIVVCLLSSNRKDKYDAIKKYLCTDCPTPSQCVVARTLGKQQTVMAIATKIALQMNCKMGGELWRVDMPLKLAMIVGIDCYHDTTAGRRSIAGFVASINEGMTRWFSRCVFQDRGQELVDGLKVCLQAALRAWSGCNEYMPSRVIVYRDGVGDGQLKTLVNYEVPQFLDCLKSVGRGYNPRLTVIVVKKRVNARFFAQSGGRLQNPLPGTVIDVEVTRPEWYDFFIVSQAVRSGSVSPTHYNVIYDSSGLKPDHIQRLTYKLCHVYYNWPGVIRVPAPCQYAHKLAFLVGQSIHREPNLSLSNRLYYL

B1: Sod oligo (FJ541118) (ssRNA)
RNA: GAAGCAGAUGAGUAUAUG
- binding result: binds

B2: spot A4 oligo (FJ541077) (ssRNA)
RNA: UCAUUGGACAUAAACUGAAUUUUCCA
- binding result: binds
